{
  "source": "paper PMC4641729",
  "about": "“NurA Is Endowed with Endo- and Exonuclease Activities that Are Modulated by HerA: New Insight into Their Role in DNA-End Processing” (PLoS ONE, 2015)",
  "binders": {"B1": {"name": "Sulfolobus solfataricus HerA (enzyme, UniProt Q97WG8 1-500, looked up)", "chain": "MIIGYVIGQATTQEALILAERPVRLGTYVVLEYDNVKALGLITNVTRGSPMLDDNMNDIEIVQRLKQFNNSIPVYTKAKVKMLCDMNNHFLMPDIPPFAGTPAREAEDEELKSIYSQDGQIRIGSLIGKNVEVKLNINSFARHLAILAATGSGKSNTVAVLSQRISELGGSVLIFDYHGEYYDSDIKNLNRIEPKLNPLYMTPREFSTLLEIRENAIIQYRILRRAFIKVTNGIREKLKEGQIPFSTLNSQFYELMKDELETQGNSDKKSSAKDEVLNKFEEFMDRYSNVIDLTSSDIIEKVKRGKVNVVSLTQLDEDSMDAVVSHYLRRILDSRKDFKRSKNSGLKFPIIAVIEEAHVFLSKNENTLTKYWASRIAREGRKFGVGLTIVSQRPKGLDENILSQMTNKIILKIIEPTDKKYILESSDNLSEDLAEQLSSLDVGEAIIIGKIVKLPAVVKIDMFEGKLLGSDPDMIGEWKKVEESEKIAKGFADFGTEIGD", "notes": "HerA ATPase, ORF SSO2251, Sulfolobus solfataricus strain P2; whole ORF amplified from genomic DNA with primers from the start codon to the stop codon, cloned BamHI/EcoRI into pet29a; 56 kDa as monomer; Hexamer in solution by gel filtration; Cloned at BamHI/EcoRI of pet29a, downstream of the vector's N-terminal S-tag; also called SSO2251; source: E. coli BL21-CodonPlus(DE3)-RIL, purified (heat …)"}, "B2": {"name": "Sulfolobus solfataricus NurA (enzyme, UniProt Q97WH1 1-339, looked up)", "chain": "MIRKIYDKLVESHNEIKNQIYNIANYLKQEIQDKVNEYWNEYVINHEQSETCKFVAIDGGSFGRPMRIGIVYAVGAESVIGDNKGVKTLSEDGQIGIFKPGNDAQERISLLMEALELSLALRDGSKGDYILMDGSLSKKIGNKVDIQQFSDEELKLIRNVDLNGIISIKDERKMRDLLMLLNQFLVSKIIEEYDGNVLWISKVSRGRDLFGTDYPDITVLELFTEKRGFSKLIIKNIDIEKISEIPEIEVLRKMEYTTFYTRLDNGKRVIRVDIVGRVDEKIVKEIMDRLSGVSIKGYPFPLLKAHMDVRFSAMDREKIIKLVGSKLHKDIEWWPSQFY", "notes": "NurA nuclease, ORF SSO2248, Sulfolobus solfataricus strain P2; whole ORF amplified from genomic DNA with primers from the start codon to the stop codon, cloned NdeI/BamHI into pet29a; 39 kDa as monomer; Dimer in solution by gel filtration; Cloned at NdeI with its own stop codon, so probably untagged (surmise); also called SSO2248; NurAwt; source: E. coli BL21-CodonPlus(DE3)-RIL, purified (heat …)"}, "B3": {"name": "70mer EMI fork (70leadCy5/70 lag emi) (mixed)", "DNA 1": "CGTGACTTGATGTTAACCCTAACCCTAAGAATTCGGCTTAAGTGAGTGTGAGGATATCATGTACGATAGC", "DNA 2": "CACACTCACTTAAGCCGAATTCTTAGGGTTAGGGTTAACATCAAGTCACG"}, "B4": {"name": "70mer bubble (70leadCy5/70 lag bubble) (mixed)", "DNA 1": "B3 DNA 1", "DNA 2": "GCTATCGTACATGATATCCTCACACTTTTTTTTTTTTTTTTTTTTGGGTTAGGGTTAACATCAAGTCACG"}},
  "key": {"[1]": {"biological_target": "the molecule itself", "assay": "SEC; Superdex 200 10/300 GL gel filtration; 800 μg HerA and 200 μg NurA, separately or mixed, incubated at 60°C for 20 min before gel filtration; fractions analysed by SDS-PAGE"}, "HerA": {"biological_target": "T1, HerA (Sulfolobus solfataricus P2, UniProt Q97WG8 1-500)", "T1 sequence": "B1 chain", "assay": "EMSA; 5 mM MgCl2, 2 mM EDTA; preferred substrate; EMSA: 20 mM HEPES/NaOH pH 7.5, 3.5 mM beta-mercaptoethanol, 50 mM NaCl, 5 mM MgCl2, 2 mM EDTA, 2 pmol DNA in 10 ul, 10 min at room temperature (NurA+HerA: 20 min at 70 C, then DNA 30 min at room temperature); 5% PAGE, 0.5x TBE", "details": "protein: recombinant, cloned BamHI/EcoRI in pET29a, so a vector-derived N-terminal extension is possible, chain copies: 6"}, "[2]": {"biological_target": "B1", "assay": "SEC; Superdex 200 10/300 GL gel filtration; 800 μg HerA and 200 μg NurA, separately or mixed, incubated at 60°C for 20 min before gel filtration; fractions analysed by SDS-PAGE", "details": "both partners purified"}},
  "data": [
    {"binder": "B1", "values": [
      {"measurement": "stoichiometry N", "setting": "[1]", "result": 6}
    ]},
    {"binder": "GACGTGGGCAAAGGTTCGTCAATGGACTGACAGCTGCATGG (ssDNA)", "note": "[ODN2 (single-stranded)]", "values": [
      {"measurement": "binding result", "setting": "HerA; label: 5' Cy5, single strand", "result": "binds"}
    ]},
    {"binder": "B2", "values": [
      {"measurement": "binding result", "setting": "[2]", "result": "binds"},
      {"measurement": "stoichiometry N", "setting": "[1]", "result": 2}
    ]},
    {"binder": "B3", "values": [
      {"measurement": "binding result", "setting": "HerA; label: 5' Cy5 on strand 1, 3' overhang 20 nt on strand 1", "result": "binds"}
    ]},
    {"binder": "B4", "values": [
      {"measurement": "binding result", "setting": "HerA; label: 5' Cy5 on strand 1, blunt ends, internal T-tract bubble", "result": "binds"}
    ]}
  ]
}
